Laboratory results reported in article PMC9540186 (The Plant Journal, 2022).

Target: the molecule itself
Assay: SDS-PAGE of non-boiled extracts with Western blot

B1: GFP‐NtUVR8 fusion protein (full‐length Nicotiana tabacum UVR8) (receptor, UniProt A0A1S4AB85 1-441, looked up)
chain: MAADGSSERAVSRKVLLISAGASHSVALLSANVVCSWGRGEDGQLGLGDAEDRFSPTQVSALDEQQIVSVTCGADHATAYSEALKQVYSWGWGDFGRLGHGNSSDLFTPQPIKALHGICIKQIACGDSHCLAVTMEGEVQSWGRNQNGQLGLGTTEDSLVPQKIEAFKGIPVKMVAAGAEHTAAVTEDGELYGWGWGRYGNLGLGDRNDRLVPVKVSATVGEKMFMVACGWRHTICVSSSGSLYTYGWSKYGQLGHGDFEDHLFPHKVQALHDSFTSQISGGWRHTMALTADGELYGWGWNKFGQVGVGDNVDHCSPVQVKFPHDQKVILISCGWRHTLAVTERQNVFSWGRGTNGQLGHGESVDRNVPRIIEALSVDGSSGQQIGSSTSDPSAAEKSWVSPTERYAVVPNENVPKQTVTSVKGNGNDVNVPENDVKRIRL
stoichiometry N: 2
